Measurements reported in the supplement of paper PMC10065799, “High-throughput profiling of sequence recognition by tyrosine kinases and SH2 domains using bacterial peptide display” (eLife, 2023).

Tests used:
c-Src SH2 = assay: SH2 binding enrichment of the phosphorylated peptide, bacterial display (enrichment ratio); higher = better substrate or ligand; peptides without Tyr show the background
Grb2 SH2 = Grb2 SH2 (UniProt P62993); assay: as above
SHP2-C SH2 = assay: as above
AncSZ = assay: phosphorylation enrichment, bacterial display (enrichment ratio); higher = better substrate or ligand; peptides without Tyr show the background
Jak2 = Jak2 (UniProt O60674); assay: as above
Fes = Fes (UniProt P07332); assay: as above
EPHB2 = EPHB2 (UniProt P29323); assay: as above
MERTK = MERTK (UniProt Q12866); assay: as above
FGFR3 = FGFR3 (UniProt P22607); assay: as above
c-Src = assay: as above
EPHB1 = EPHB1 (UniProt P54762); assay: as above
Fer (mouse) = assay: as above
c-Abl (mouse) = assay: as above
Hck = Hck (UniProt P08631); assay: as above
Fyn = Fyn (UniProt P06241); assay: as above
FGFR1 = FGFR1 (UniProt P11362); assay: as above
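Throughout, for SH2 binding enrichment of the phosphorylated peptide, bacterial display: peptide library displayed on the E. coli surface as eCPX fusions, selected cells deep-sequenced, score is each peptide's frequency after selection divided by its frequency in the input.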
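Throughout, for phosphorylation enrichment, bacterial display: 11-residue human phosphosite peptides and single-mutation variants displayed on the E. coli surface, counted by deep sequencing, each peptide's frequency after selection divided by its frequency in the unselected input library; frequency after pTyr selection over input frequency; kinase dosed for 20-30% of maximal phosphorylation in three min.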

Chain of Jak2 (O60674 whole entry, looked up): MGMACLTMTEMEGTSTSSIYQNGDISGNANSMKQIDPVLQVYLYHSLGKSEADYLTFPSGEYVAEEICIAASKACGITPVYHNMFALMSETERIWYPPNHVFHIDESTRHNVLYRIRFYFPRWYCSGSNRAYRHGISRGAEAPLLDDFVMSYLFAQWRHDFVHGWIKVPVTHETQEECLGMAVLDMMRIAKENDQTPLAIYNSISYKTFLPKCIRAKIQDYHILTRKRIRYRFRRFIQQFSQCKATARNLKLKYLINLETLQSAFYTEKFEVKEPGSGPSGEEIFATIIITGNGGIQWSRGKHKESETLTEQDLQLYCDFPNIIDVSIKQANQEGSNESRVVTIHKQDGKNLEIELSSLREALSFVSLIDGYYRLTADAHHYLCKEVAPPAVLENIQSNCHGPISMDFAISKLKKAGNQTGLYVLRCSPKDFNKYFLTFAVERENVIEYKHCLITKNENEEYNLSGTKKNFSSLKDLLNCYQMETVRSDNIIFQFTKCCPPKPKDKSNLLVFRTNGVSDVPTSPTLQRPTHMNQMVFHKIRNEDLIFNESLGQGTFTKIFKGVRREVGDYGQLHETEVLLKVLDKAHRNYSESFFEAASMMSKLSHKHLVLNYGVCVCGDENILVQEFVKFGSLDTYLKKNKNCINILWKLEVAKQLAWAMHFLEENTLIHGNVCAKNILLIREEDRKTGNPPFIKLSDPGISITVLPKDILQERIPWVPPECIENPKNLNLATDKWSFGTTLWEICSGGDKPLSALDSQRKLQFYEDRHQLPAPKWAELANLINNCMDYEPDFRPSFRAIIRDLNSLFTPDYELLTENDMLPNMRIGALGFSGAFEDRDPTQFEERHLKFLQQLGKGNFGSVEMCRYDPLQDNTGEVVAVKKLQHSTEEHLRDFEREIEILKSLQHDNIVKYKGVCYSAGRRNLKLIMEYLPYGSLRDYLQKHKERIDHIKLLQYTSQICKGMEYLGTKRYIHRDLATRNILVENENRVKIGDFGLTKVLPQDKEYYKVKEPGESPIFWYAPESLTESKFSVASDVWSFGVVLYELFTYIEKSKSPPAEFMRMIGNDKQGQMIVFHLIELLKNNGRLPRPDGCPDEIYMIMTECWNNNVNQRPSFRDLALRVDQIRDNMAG
Chain of EPHB1 (P54762 whole entry, looked up): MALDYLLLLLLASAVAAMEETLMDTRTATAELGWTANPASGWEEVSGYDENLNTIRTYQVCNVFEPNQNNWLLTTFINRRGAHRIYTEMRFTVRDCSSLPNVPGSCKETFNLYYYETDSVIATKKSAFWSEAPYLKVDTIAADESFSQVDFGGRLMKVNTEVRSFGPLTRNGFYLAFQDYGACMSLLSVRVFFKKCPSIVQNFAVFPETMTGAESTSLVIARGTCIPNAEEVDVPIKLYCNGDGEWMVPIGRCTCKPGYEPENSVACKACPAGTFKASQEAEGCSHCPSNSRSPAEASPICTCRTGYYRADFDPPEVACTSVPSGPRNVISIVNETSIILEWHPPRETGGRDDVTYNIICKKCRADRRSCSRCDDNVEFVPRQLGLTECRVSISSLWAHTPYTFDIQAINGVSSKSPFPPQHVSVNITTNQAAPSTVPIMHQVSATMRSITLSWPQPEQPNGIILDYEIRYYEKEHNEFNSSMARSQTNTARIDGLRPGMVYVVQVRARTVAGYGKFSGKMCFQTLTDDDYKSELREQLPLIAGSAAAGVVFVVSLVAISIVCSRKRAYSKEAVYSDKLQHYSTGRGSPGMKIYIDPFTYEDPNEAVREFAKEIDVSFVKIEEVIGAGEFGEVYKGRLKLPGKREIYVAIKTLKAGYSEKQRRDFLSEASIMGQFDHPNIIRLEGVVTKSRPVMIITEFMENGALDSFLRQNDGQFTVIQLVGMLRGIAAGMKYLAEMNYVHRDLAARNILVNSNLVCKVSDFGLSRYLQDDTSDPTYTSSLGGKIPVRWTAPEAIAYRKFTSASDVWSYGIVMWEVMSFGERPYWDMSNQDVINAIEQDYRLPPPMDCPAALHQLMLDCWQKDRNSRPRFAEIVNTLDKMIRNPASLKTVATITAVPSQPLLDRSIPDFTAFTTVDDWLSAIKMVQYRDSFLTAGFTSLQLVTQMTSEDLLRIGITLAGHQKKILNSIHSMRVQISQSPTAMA
Chain of FGFR3 (P22607 whole entry, looked up): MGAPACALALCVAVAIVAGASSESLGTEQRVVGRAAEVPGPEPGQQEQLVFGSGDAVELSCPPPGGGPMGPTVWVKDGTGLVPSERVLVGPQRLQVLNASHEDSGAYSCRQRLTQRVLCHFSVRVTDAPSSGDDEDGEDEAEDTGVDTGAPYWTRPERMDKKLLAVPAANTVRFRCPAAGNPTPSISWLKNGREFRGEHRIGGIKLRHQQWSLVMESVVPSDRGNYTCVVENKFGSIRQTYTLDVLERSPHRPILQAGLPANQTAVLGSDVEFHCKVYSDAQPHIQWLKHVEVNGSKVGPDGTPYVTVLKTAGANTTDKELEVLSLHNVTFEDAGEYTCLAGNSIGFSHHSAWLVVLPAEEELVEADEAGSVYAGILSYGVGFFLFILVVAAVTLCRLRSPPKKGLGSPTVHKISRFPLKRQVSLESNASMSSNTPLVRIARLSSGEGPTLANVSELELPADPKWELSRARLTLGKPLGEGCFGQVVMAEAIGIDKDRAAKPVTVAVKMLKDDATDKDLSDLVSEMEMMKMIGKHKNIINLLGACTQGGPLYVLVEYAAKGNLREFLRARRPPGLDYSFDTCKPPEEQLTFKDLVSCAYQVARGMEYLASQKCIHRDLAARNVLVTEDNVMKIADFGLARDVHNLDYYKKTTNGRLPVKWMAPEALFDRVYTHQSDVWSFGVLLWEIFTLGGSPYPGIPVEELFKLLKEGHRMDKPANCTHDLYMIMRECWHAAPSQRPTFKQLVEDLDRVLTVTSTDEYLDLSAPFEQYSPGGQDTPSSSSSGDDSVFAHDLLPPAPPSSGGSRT
Chain of MERTK (Q12866 whole entry, looked up): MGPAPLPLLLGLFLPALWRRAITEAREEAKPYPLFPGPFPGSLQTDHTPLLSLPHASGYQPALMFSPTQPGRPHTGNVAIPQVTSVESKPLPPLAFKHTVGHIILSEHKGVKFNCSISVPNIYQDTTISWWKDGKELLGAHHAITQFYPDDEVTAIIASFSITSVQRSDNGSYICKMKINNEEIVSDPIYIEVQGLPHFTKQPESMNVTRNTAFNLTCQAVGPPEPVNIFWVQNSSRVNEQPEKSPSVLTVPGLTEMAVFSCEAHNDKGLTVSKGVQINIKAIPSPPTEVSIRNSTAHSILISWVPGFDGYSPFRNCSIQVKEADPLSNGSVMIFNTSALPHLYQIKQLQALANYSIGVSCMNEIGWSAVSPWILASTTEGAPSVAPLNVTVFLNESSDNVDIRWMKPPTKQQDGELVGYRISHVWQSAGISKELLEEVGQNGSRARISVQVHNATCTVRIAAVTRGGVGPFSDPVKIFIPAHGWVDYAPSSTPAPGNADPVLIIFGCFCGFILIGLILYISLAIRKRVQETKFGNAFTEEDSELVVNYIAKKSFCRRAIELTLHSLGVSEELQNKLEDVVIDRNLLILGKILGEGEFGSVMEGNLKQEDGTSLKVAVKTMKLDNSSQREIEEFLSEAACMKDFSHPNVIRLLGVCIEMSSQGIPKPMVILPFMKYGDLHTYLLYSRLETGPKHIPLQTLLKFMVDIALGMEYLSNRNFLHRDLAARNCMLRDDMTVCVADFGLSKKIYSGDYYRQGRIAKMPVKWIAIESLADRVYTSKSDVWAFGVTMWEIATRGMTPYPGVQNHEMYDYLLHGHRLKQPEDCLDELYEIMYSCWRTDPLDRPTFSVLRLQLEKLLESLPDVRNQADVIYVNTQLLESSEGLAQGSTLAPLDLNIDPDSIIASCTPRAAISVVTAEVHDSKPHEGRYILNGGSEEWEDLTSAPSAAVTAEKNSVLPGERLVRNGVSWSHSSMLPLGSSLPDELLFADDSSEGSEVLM
Chain of Fyn (P06241 whole entry, looked up): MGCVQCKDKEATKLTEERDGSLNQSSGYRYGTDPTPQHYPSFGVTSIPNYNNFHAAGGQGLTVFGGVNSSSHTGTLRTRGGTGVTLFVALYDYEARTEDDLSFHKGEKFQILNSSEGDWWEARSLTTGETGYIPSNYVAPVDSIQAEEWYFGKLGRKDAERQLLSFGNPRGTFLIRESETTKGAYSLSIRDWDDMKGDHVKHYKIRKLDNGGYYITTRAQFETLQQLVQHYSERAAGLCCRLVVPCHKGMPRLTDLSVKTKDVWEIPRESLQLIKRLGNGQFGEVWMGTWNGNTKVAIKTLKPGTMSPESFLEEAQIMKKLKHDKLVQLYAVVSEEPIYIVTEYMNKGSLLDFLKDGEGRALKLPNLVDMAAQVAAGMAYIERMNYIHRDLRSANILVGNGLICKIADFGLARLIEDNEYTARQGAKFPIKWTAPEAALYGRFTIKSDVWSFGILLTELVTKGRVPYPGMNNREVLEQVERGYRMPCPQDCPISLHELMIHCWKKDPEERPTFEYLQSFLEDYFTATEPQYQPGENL
Chain of Hck (P08631 whole entry, looked up): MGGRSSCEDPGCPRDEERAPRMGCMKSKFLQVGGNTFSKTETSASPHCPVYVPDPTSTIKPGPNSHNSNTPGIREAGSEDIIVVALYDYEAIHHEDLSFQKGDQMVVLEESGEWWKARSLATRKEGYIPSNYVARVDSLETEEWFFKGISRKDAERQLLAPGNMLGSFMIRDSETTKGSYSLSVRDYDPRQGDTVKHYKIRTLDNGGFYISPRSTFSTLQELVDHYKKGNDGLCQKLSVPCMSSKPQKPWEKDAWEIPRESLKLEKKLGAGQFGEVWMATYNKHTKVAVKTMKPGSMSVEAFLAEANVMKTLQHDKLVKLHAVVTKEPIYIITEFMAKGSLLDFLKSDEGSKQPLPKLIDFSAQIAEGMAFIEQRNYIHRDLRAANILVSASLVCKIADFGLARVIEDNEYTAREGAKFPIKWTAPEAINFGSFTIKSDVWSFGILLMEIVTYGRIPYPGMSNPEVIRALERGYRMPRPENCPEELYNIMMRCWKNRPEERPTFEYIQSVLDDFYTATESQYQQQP

Row | Sequence | SH2 binding enrichment (c-Src SH2) | SH2 binding enrichment (Grb2 SH2) | SH2 binding enrichment (SHP2-C SH2) | phosphorylation enrichment (AncSZ) | phosphorylation enrichment (Jak2) | phosphorylation enrichment (Fes) | phosphorylation enrichment (EPHB2) | phosphorylation enrichment (MERTK) | phosphorylation enrichment (FGFR3) | phosphorylation enrichment (c-Src) | phosphorylation enrichment (EPHB1) | phosphorylation enrichment (Fer (mouse)) | phosphorylation enrichment (c-Abl (mouse)) | phosphorylation enrichment (Hck) | phosphorylation enrichment (Fyn) | phosphorylation enrichment (FGFR1)
1 | PLKALYLQQRL [ATM_Y2969_P2974L] | 0.8 | 1.2 | 1.17 | 0.776 | 0.634 | 1.01 | 0.629 | 0.523 | 0.692 | 0.46 | 0.539 | 0.398 | 0.722 | 0.62 | 0.343 | 0.429
2 | PLLEFYRDIFT [CDAN1_Y713_YF] | 0.473 | 0.857 | 0.966 | 1.85 | 2 | 2.2 | 0.874 | 0.81 | 1.33 | 0.816 | 0.95 | 0.732 | 1.18 | 0.626 | 0.669 | 0.822
3 | PQGVSYIFTID [DCX_Y103_R102S_YF] | 0.553 | 0.902 | 1.73 | 0.94 | 1.48 | 1.74 | 0.692 | 0.591 | 0.893 | 0.486 | 0.726 | 0.495 | 0.812 | 0.509 | 0.729 | 0.456
4 | PTATSYTPNLA [GABRA1_Y375] | 0.729 | 0.699 | 0.604 | 0.568 | 0.349 | 0.521 | 0.314 | 0.357 | 0.607 | 0.306 | 0.291 | 0.571 | 0.505 | 0.477 | 0.643 | 0.459
5 | PVQAAYEKVVA [HBB_Y131_Q132E] | 2.59 | 0.885 | 0.886 | 0.855 | 0.568 | 1.02 | 0.345 | 0.507 | 0.699 | 0.415 | 0.744 | 0.958 | 0.551 | 0.591 | 0.88 | 0.786
6 | PVQAAYQKLVA [HBB_Y131_V134L] | 0.709 | 0.659 | 0.764 | 0.735 | 1.55 | 0.796 | 0.494 | 0.577 | 0.698 | 0.499 | 0.458 | 0.768 | 0.518 | 0.558 | 0.582 | 0.447
7 | PVQAAYQKVVP [HBB_Y131_A136P] | 1 | 0.881 | 0.751 | 0.763 | 0.88 | 0.64 | 0.631 | 0.619 | 0.775 | 0.626 | 0.787 | 0.827 | 0.561 | 0.803 | 0.878 | 0.727
8 | PYSNPYENSLI [EPOR_Y489] | 5.44 | 3.58 | 0.818 | 1.17 | 1.05 | 1.16 | 0.714 | 0.912 | 1.14 | 1.15 | 0.781 | 2.63 | 0.762 | 0.679 | 0.906 | 0.806
9 | QFLMKYVWSAP [ABCD1_Y337_S342P] | 0.595 | 0.941 | 0.653 | 1.68 | 1.34 | 1.63 | 0.738 | 0.61 | 1.03 | 0.429 | 0.834 | 0.836 | 0.749 | 0.674 | 0.562 | 0.634
10 | QGGRHYMMIVD [GAA_Y438_R437H] | 8.36 | 1.09 | 1.57 | 1.01 | 0.863 | 0.778 | 0.573 | 0.969 | 0.981 | 0.444 | 0.639 | 0.605 | 0.475 | 0.779 | 0.65 | 1.01
11 | QGLRLYRAHLA [BTK_Y617_P619A] | 1.21 | 1.38 | 1.61 | 1.43 | 0.878 | 0.978 | 0.602 | 0.582 | 0.677 | 0.523 | 0.587 | 0.467 | 0.854 | 0.497 | 0.576 | 0.521
12 | QKKEEYKMALF [F8_Y1990_R1985Q_YF] | 0.483 | 0.73 | 0.481 | 0.736 | 0.552 | 0.866 | 0.48 | 0.811 | 0.509 | 0.37 | 0.645 | 0.498 | 0.774 | 0.561 | 0.421 | 0.716
13 | QKPLGYYRVNL [GALE_Y104_D103G] | 0.961 | 1.27 | 1.3 | 0.667 | 2.37 | 0.641 | 0.482 | 0.516 | 0.826 | 0.386 | 0.445 | 0.51 | 0.455 | 0.497 | 0.528 | 0.636

Continued, in another order:

Row | SH2 binding enrichment (c-Src SH2) | SH2 binding enrichment (Grb2 SH2) | SH2 binding enrichment (SHP2-C SH2) | Sequence | phosphorylation enrichment (AncSZ) | phosphorylation enrichment (Jak2) | phosphorylation enrichment (Fes) | phosphorylation enrichment (EPHB2) | phosphorylation enrichment (MERTK) | phosphorylation enrichment (FGFR3) | phosphorylation enrichment (c-Src) | phosphorylation enrichment (EPHB1) | phosphorylation enrichment (Fer (mouse)) | phosphorylation enrichment (c-Abl (mouse)) | phosphorylation enrichment (Hck) | phosphorylation enrichment (Fyn) | phosphorylation enrichment (FGFR1)
14 | 0.394 | 0.757 | 0.629 | PLFGEYFTLQI [TP53_Y327_D324Y_YF] | 4.62 | 12.9 | 2.8 | 2.42 | 1.13 | 12.5 | 8.29 | 2.69 | 1.49 | 4.41 | 4.51 | 6.77 | 16.9
15 | 1.93 | 0.8 | 0.652 | PLKYLYPNIDR [STAT1_Y668_K673R] | 1.23 | 0.859 | 1.38 | 0.819 | 0.435 | 0.58 | 0.684 | 0.579 | 0.773 | 1.09 | 0.501 | 0.313 | 0.606
16 | 0.53 | 1.11 | 0.633 | PLQKTYNFNVL [SLC4A1_Y553_YF] | 0.686 | 1.05 | 0.903 | 0.645 | 0.426 | 0.593 | 0.43 | 0.709 | 0.383 | 0.627 | 0.477 | 0.602 | 0.554
17 | 4.6 | 1.18 | 2.66 | PSELYYSKISP [SMG1_Y2254_G2258S] | 2.87 | 6.46 | 2.15 | 3.13 | 23.1 | 8.81 | 8.68 | 6.25 | 23.8 | 4.3 | 17.9 | 6.66 | 11.7
18 | 0.705 | 1.2 | 1.11 | PSQRCYVFFFS [PTEN_Y174_R173C_YF] | 1.37 | 1.24 | 1.73 | 0.735 | 0.646 | 1.35 | 0.646 | 0.865 | 0.703 | 0.882 | 0.616 | 0.79 | 0.837
19 | 1.42 | 1.53 | 1.3 | PSQRPYVFFFS [PTEN_Y174_R173P_YF] | 1.27 | 1.21 | 1.51 | 0.559 | 0.755 | 1.14 | 0.973 | 0.726 | 0.693 | 1.25 | 0.439 | 0.605 | 2.12
20 | 0.787 | 1.62 | 0.369 | PTFENYANSTQ [SLC12A3_Y70_H69N_YF] | 0.853 | 0.895 | 1.08 | 0.711 | 0.572 | 0.539 | 0.391 | 0.542 | 0.52 | 0.531 | 0.766 | 0.437 | 0.615
21 | 0.386 | 0.635 | 0.55 | QAQMDYRRWQP [MPL_Y591_L594W] | 0.548 | 0.762 | 0.795 | 0.539 | 0.373 | 0.491 | 0.361 | 0.523 | 0.49 | 0.745 | 0.424 | 0.461 | 0.402
22 | 3.76 | 0.724 | 1.54 | QDRTYYESVRT [SPEN_Y633] | 0.996 | 0.82 | 0.874 | 0.758 | 1.21 | 1.37 | 2.66 | 0.98 | 4.79 | 0.61 | 4.01 | 2.28 | 1.9
23 | 0.543 | 0.978 | 0.722 | QEIATHRRLLE [KRT14_Y415_Y415H] | 0.692 | 0.575 | 1.06 | 0.469 | 0.69 | 1.09 | 0.43 | 0.403 | 0.711 | 0.695 | 0.508 | 0.576 | 0.529
24 | 0.307 | 0.699 | 0.772 | QGIIIYRAAFF [SLC25A4_Y187_YF] | 1.21 | 1.17 | 1.69 | 0.338 | 0.61 | 0.634 | 0.542 | 0.605 | 0.581 | 1.04 | 0.422 | 0.342 | 0.327
25 | 0.726 | 0.898 | 0.841 | QITQVYGFFDE [PPP2CA_Y127_YF] | 1.81 | 1.33 | 1.81 | 0.97 | 2.32 | 1.08 | 8.8 | 1.28 | 1.39 | 1.06 | 6.92 | 14.9 | 0.836
26 | 1.72 | 0.867 | 0.693 | QITQVYGFYDE [PPP2CA_Y127] | 1.24 | 1.06 | 1.21 | 1.12 | 1.58 | 1.27 | 6.85 | 0.716 | 1.3 | 1.01 | 3.7 | 9.45 | 0.615
27 | 0.538 | 0.73 | 0.613 | QLCVNYPGGFT [PROS1_Y259_YF] | 1.45 | 0.907 | 1.61 | 0.697 | 0.552 | 0.904 | 0.37 | 0.792 | 0.692 | 0.835 | 0.85 | 0.675 | 0.698
28 | 0.945 | 1.37 | 1.15 | QLHEHCKIHKE [NSMAF_Y626_Y626C] | 0.682 | 0.666 | 0.612 | 0.422 | 0.629 | 0.651 | 0.724 | 0.343 | 0.522 | 0.728 | 0.649 | 0.633 | 0.745
29 | 0.539 | 0.822 | 0.439 | QLPATCMNLGP [MST1R_Y1360_Y1360C] | 1.29 | 1.14 | 1.2 | 0.683 | 0.533 | 0.913 | 0.632 | 0.668 | 0.621 | 1.06 | 0.554 | 0.817 | 0.615
